This is an account of results in a protein production outcome set (Wang et al. 2014).

A short description of this data set: label from the status in PepcDB records.
Consider “MTETIKCIGCGVEIQTEDKNEVGYAPASSLEKEQVICQRCFRLKHYNEIQDVSLTDDDFLRILNGIGKSDALVVKIVDIFDFNGSWLPGLHRFVGNNKVLLVGNKADLIPKSVKHDKVKHWMRYSAKQLGLKPEDVFLISAAKGQGIAELADAIEYYRGGKDVYVVGCTNVGKSTFINRMIKEFSDETENVITTSHFPGTTLDLIDIPLDEESSLYDTPGIINHHQMAHYVGKQSLKLITPTKEIKPMVFQLNEEQTLFFSGLARFDYVSGGRRAFTCHFSNRLTIHRTKLEKADELYKNHAGDLLSPPTPEELENMPELVKYEFNIREPKTDVVFSGLGWVTVNEPGAKIVAHVPKGVSVSLRKSLI”, for which the protein production result is reported as “not failed”.

Take “MSNHRHDHSLPSDADSRYLVAALTLLAAFMITEIITAVISGSLALLSDAGHMLSDIGAIAIALWAARLTRRRPQGSWTWGWKRAEIMSAAVNGVTLLVVAILVGIEAVRRLVTPPAVGGGLVMVIAAVGVVVNVAVAWLVARANRRSLNVEGAYQHILTDLFGFIGTLVAGLVIVTTGWTRADAIASLIICGLMLRAAWSLLSQTGRILMEVAPASLDLDEVRHHLMDLDHVRSVHDLHAWTVSSDLPALSAHIVVEDSCFADGHAPILLAQIQQCLSGHFDLDHSTLQLEPPRHAGTENQTM”: the protein production result was “failed”. To “MDHQLQQLLDLGLEAKCLLVGINGHWGRAPWWSRPQRGRWPGGCGHLPIFQGGPERICRVLLSARGRAAAAMAAVSWPAIRLALSHVANCATAVLPPLAIDRCQAMSRPQRPARRGAEGQVRIVGGRWRNTRLAVPSLTGLRPSSDRVRETLFNWLMPRLPGARVLDLFAGSGALGLEAVSRGAGHATLIERDSSLVQRLRAHVTRLDAATQVQVLQEDAVRWLERAPAALADIVFVDPPFAACLWPAVLERLPAHVAADAWLYLEAPADAPLLPAGWHLHREGATREVRYALYRRAAATLASDPTPVVSV” belongs “failed”; to “MGTEERKARQKRYPPVLQDSGERPRRRFPYVSRSFVPSVFTVMNMVSGYVSIVMAGEGSFVIAGWLIFLAAFFDTIDGFVARLTNSSSEFGVELDSLSDLVSFGAAPAYLVYKFGLEHIGMPWGLLLSSLLMVGSGLRLARFNINLIDYHKDSFSGLPTPAQAMTVASFVLWMSVEPLFTELALQKVLMVLSVLLATLMVSKVNYDALPKPTLESFRSHPVQMILYVIAIFCVLVFQAKAFFVAMLLYILLGIVRSLTRTVQEWQL”, “failed”. For the sequence “MNDIAREPVLGGAPAPAVPQPLRVRFCGSGSEYFRIWIVNLLLTIVTLGIYSAWAKVRTLQYFYRNTQLGGASFDYHGSPTAILKGRAIIFVLALAFNLSGQVSPVLTLLLLAAIGLVFPWLLVRSLRFRMANSSYRGLRFAFTGKDAQAYKVFLLWPVLTVFTFNLLAPFAHQRFKQYQHRNTRFGTTSFDFSATAGQFYGVYLRTFGMAILAVMAVGVVVVLAGVSAAAGAASGGRAIAVSLMVLAMYAAMLFLGPYFLARLQNVVWNHTTLGAHRFQSQVSAGKLFWIFISNAALLIVTLGLFTPFARVRSARYKLESVTMLAAGSLDTFVAGESTRVGALGDAAVDWYDIDIAL”, the protein production result was “failed”. To “MQKGFLLGLFAYATFSMGDATIKSLGSQISVFEIGFFSILFSGIFIFFSKPREERWREFWRMSRPFAVHGRAISGLFAGIFGIYAFTTIPLAEAYALIFLSPLFVTVLSAVVLKENIGPWRWAAVLAGIVGVILVVRPGFKTLELGHIAAIGVAFLAAMTIVLLRSLAGKEKRTSIMGVLLIYGLTFNGIASIPDFVMPNLHQLLAFAFIGLCTATGQITLLVATRIAPASQIAPSHYSQILWAVAIGMTFFHEYPDAIAALGLAVIAASGLLTMIREKVRLGTVRWNPFFRNRL” belongs “failed”; to “MVTREEFVARFGGVFEHSPFIAERAYDAGGAGLELTAKAVHGALCAQFRVASEAERLGVLRAHPDLAGKLAIAGELTADSRNEQAGAGLDRLSPQEHARFTQLNSAYTEKFGFPFIIAVKGLNRHDILSAFDTRIDNNAAQEFATATGQVEKIAWLRLASMLPEG”, “not failed”.
